Data reported in article PMC2775743, “Structural insights into the substrate tunnel of Saccharomyces cerevisiae carbonic anhydrase Nce103” (BMC Structural Biology, 2009).

Assays:
[1] = molecular target: the molecule itself; test: crystal structure; Nce103ΔN13, hanging drop vapor diffusion at 16°C; 20% PEG4000, 0.1 M sodium citrate pH 5.6, 0.1 M sodium acetate, 20% ethylene glycol; two molecules in the asymmetric unit; 2.04 Å
[2] = molecular target: the molecule itself; test: not stated; oligomeric state in solution, noted during purification (Ni2+ affinity, Superdex 75 gel filtration); how it was determined is not told

Protein	stoichiometry N [1]	stoichiometry N [2]
Nce103ΔN13 (enzyme, S. cerevisiae, UniProt P53615 14-221, looked up, Carbonic anhydrase Nce103 (β-class), S. cerevisiae strain S288C, ORF YNL036W, without the N-terminal 13 residues; residues His14 to Lys221; One zinc ion for each subunit; In the crystal the His tag, His14-Ser16 and Pro41-Gln48 are not seen in the density; also called truncated NCE103 without the N-terminal 13 residues; β-CA Nce103/YNL036W; source: for crystallization in 20 mM acetate buffer, pH …) HNSNLQDILAANAKWASQMNNIQPTLFPDHNAKGQSPHTLFIGCSDSRYNENCLGVLPGEVFTWKNVANICHSEDLTLKATLEFAIICLKVNKVIICGHTDCGGIKTCLTNQREALPKVNCSHLYKYLDDIDTMYHEESQNLIHLKTQREKSHYLSHCNVKRQFNRIIENPTVQTAVQNGELQVYGLLYNVEDGLLQTVSTYTKVTPK	2	
Nce103ΔN50 (enzyme, S. cerevisiae, UniProt P53615 51-221, looked up, Carbonic anhydrase Nce103 (β-class), S. cerevisiae strain S288C, ORF YNL036W, residues His51-Lys221; the tag is probably N-terminal here too; also called truncated NCE103 without the N-terminal 50 residues) HTLFIGCSDSRYNENCLGVLPGEVFTWKNVANICHSEDLTLKATLEFAIICLKVNKVIICGHTDCGGIKTCLTNQREALPKVNCSHLYKYLDDIDTMYHEESQNLIHLKTQREKSHYLSHCNVKRQFNRIIENPTVQTAVQNGELQVYGLLYNVEDGLLQTVSTYTKVTPK		2
